Source: US20200223921A1 (TRUEBINDING, published 2020)

B2: mouse TIM-3 Fc protein (R&D systems) (Fc fusion, UniProt Q8VIM0 20-191, looked up)
chain: RSLENAYVFEVGKNAYLPCSYTLSTPGALVPMCWGKGFCPWSQCTNELLRTDERNVTYQKSSRYQLKGDLNKGDVSLIIKNVTLDDHGTYCCRIQFPGLMNDKKLELKLDIKAAKVTPAQTAHGDSTTASPRTLTTERNGSETQTLVTLHNNNGTKISTWADEIKDSGETIR
notes: Bought; also called mTIM-3 Fc; mTIM-3-Fc; not shown: Fc

Legend:
[1] = target: mouse Gal3 (endogenous, on B16F10 tumor cells and RAW264.7 macrophages) (mouse) (UniProt P16110); assay: flow cytometry on B16F10 cells, rat anti mouse Gal3 PE against control rat IgG PE
[2] = target: B2; assay: ELISA: plate coated with mGal3 at 10 ug/ml, mTIM-3 Fc (FIGS. 5A-5C)
Protocol: In FIG. 5A, different anti Gal3 antibodies, i.e. mGal3 polyclonal antibody (R&D sytems), mAb IMT001, mAb M3/38 (Thermofisher Scientific) (FIG. 5A), were added to well that has been coated with Gal3. The antibodies were incubated for 10 minutes and mouse TIM-3 Fc were then added to the plates and incubated for an additional one-hour incubation. Plates were then washed for three times and followed by incubation with anti human-IgG-HRP (Jackson ImmunoResearch) for 1 h at room temperature. The color was developed with TMB subtract (GeneTex, Irvine, Calif.) after three time washes with TBST and the reaction was terminated with 1N HCl. The optical density (OD) was read at 450 nm. The results were expressed as the average OD of duplicates±SD.
In FIG. 5B, mouse Gal3 protein (BioLegend) in PBS (groups 1 and 2) or PS (Sigma-Aldrich, St. Louis, Mo.) in ethanol (groups 3 and 4) were coated on the plates and incubated at 4° C. overnight. Anti mTIM-3 mouse antibodies, mAb RMT3-23 (Bio X cell), was added to the coated plates for groups 2 and 4 only. Secondary anti human-IgG-HRP antibody and substrates were added as described above to detect the binding of the mTIM-3 to mGal3 or PS. […]

[3] = target: human Gal9 protein (R&D systems) (human) (UniProt O00182); assay: ELISA: plate coated with hGal9, mTIM-3 Fc with or without 25 mM alpha-lactose
[4] = target: T1, Flag-tagged human Gal3 protein stably expressed on A20 cells (A20 Gal3 cells) (human, UniProt P17931 2-250); assay: flow cytometry: mTIM-3 Fc on live A20 Gal3 cells, anti-hFc APC detection (FIG. 4B, row 2)
T1 construct: Mouse B lymphoma A20 cells transfected with a construct encoding Flag-tagged human Gal3; also called A20 cells overexpressing human Gal3; hGal3; not shown: Flag tag
Protocol: Flow cytometry analysis was performed to evaluate the binding between TIM-3 and Gal3 using A20 cells. A20 Gal3 cells were incubated with 10% FBS HBSS solution that contains with or without mouse TIM-3 Fc on ice for 20 minutes. There are five experimental groups: in group 1, A20 Gal3 cells were incubated without mTIM-3 Fc protein as control; in group 2, A20 Gal3 cells were incubated with mTIM-3 Fc protein; in groups 3, 4, 5, in addition to mTIM-3 Fc protein, anti-mouse TIM-3 polyclonal antibody (R&D System, Minneapolis, Minn.) (group 3), monoclonal antibody RMT3-23 (Bio X cell, West Lebanon, N.H.) (group 4), monoclonal antibody 215015 (R&D Systems) (group 5), were also added to test if these antibodies could block Gal3 and Tim3 binding. For blocking, cells were incubated with 10% FBS HBSS containing mentioned antibodies, then were added with 10% FBS HBSS containing mTIM-3 Fc for 20 min. Samples were centrifuged and pellet were added 10% FBS HBSS containing APC conjugated anti-hFc antibodies (Jackson ImmunoResearch, West Grove, Pa.) for 20 min. After spinning, live/dead cells were stained with Violet dead cell stain kit (Life Technologies). Stained cells were subjected to flow analysis.

T1 sequence (P17931 2-250): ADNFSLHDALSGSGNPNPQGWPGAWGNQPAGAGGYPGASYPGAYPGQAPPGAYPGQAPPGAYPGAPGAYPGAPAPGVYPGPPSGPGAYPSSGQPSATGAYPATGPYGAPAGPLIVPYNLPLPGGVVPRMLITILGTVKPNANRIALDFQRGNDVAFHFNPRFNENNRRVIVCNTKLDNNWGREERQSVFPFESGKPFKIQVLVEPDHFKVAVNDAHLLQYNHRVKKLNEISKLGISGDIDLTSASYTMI
Chain of human Gal9 protein (R&D systems) (human) (O00182 other isoform, or with tags, fused parts or gaps limits assumed): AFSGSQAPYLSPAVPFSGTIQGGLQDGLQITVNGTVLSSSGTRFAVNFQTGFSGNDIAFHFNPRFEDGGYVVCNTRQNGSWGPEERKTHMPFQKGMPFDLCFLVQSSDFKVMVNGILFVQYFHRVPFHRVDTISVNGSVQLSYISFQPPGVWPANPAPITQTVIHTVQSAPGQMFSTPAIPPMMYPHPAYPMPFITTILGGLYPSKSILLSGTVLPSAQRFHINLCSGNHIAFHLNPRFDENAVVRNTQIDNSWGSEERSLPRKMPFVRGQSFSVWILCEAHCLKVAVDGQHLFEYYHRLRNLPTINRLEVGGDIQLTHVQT

“rat anti mouse Gal3 PE antibody (Thermo Fisher Scientific)” gave a fold of MFI over isotype control antibody [1] of 10 fold.

B1: mouse Gal3 protein (BioLegend) (ligand)
chain: ADSFSLNDALAGSGNPNPQGYPGAWGNQPGAGGYPGAAYPGAYPGQAPPGAYPGQAPPGAYPGQAPPSAYPGPTAPGAYPGPTAPGAYPGSTAPGAFPGQPGAPGAYPSAPGGYPAAGPYGVPAGPLTVPYDLPLPGGVMPRMLITIMGTVKPNANRIVLDFRRGNDVAFHFNPRFNENNRRVIVCNTKQDNNWGKEERQSAFPFESGKPFKIQVLVEADHFKVAVNDAHLLQYNHRMKNLREISQLGISGDITLTSANHAMI
notes: Bought recombinant protein coated on ELISA plates; also called mGal3
B1: binds [2].

In the case of B2, the fold reduction in ELISA signal with 25 mM alpha-lactose against no lactose [3] is reported as > 10 fold and the binding result [4] is reported as “binds”.
